According to the Immune Epitope Database (IEDB):

Key:
HLA-A*01:01 [1] = test: IEDB peptide-MHC binding, purified MHC/competitive/radioactivity; filed as Kd, often an IC50 or EC50 that approximates it; ≥ and ≤ were set here for values at or beyond the usual limits of such assays
HLA-A*01:01 [2] = test: IEDB peptide-MHC binding, purified MHC/competitive/radioactivity; ≥ and ≤ were set here for values at or beyond the usual limits of such assays
[3] = source organism: Neisseria gonorrhoeae
[4] = source organism: Human immunodeficiency virus type 1 (NEW YORK-5 ISOLATE)
[5] = source organism: Mycobacterium tuberculosis
[6] = source organism: Hepatitis B virus adw/Okinawa/PODW282
[7] = source organism: Clostridium botulinum
[8] = source organism: Clostridium perfringens
[9] = source organism: Hepacivirus hominis
[10] = source organism: Human papillomavirus 16

Sequence: TTRPGLAGY
- Kd (HLA-A*01:01 [1]; [3]): ≥ 35000 nM

Sequence: NTFVQANLY
- IC50 (HLA-A*01:01 [2]; [3]): 492 nM

Sequence: PGDPPQPEY
- Kd (HLA-A*01:01 [1]; source organism: Hepatitis C virus (isolate Japanese)): ≥ 50000 nM

Sequence: ETKLGKAGY
- Kd (HLA-A*01:01 [1]; [4]): ≥ 42000 nM

Sequence: VTPEQRPLY
- Kd (HLA-A*01:01 [1]; [5]): 2710 nM

Sequence: KTQNGKKQY
- Kd (HLA-A*01:01 [1]; [3]): ≥ 50000 nM

Sequence: QNDYDEDDY
- Kd (HLA-A*01:01 [1]; [3]): 14000 nM

Sequence: PTTGRTSLY
- IC50 (HLA-A*01:01 [2]; [6]): 54 nM

Sequence: PLDKGIKPY
- Kd (HLA-A*01:01 [1]; [6]): 2210 nM

Sequence: ISDESYRVY
- IC50 (HLA-A*01:01 [2]; [7]): 183 nM

Sequence: QRESTAMAY
- Kd (HLA-A*01:01 [1]; [3]): ≥ 50000 nM

Sequence: GTYDYWAGY
- Kd (HLA-A*01:01 [1]; [3]): 1180 nM

Sequence: SSLGLPVSY
- Kd (HLA-A*01:01 [1]; [5]): 9660 nM

Sequence: ASADKPYSY
- IC50 (HLA-A*01:01 [2]; [3]): 280 nM

Sequence: LGDGVKDHY
- Kd (HLA-A*01:01 [1]; [8]): 11600 nM

Sequence: FVEDPNGKY
- IC50 (HLA-A*01:01 [2]; [7]): 677 nM

Sequence: LHEYKQGDY
- Kd (HLA-A*01:01 [1]; [7]): ≥ 50000 nM

Sequence: VREFPEDQY
- Kd (HLA-A*01:01 [1]; [3]): ≥ 50000 nM

Sequence: LTKQYLNLY
- IC50 (HLA-A*01:01 [2]; [6]): 84 nM

Sequence: IIEDQYNRY
- IC50 (HLA-A*01:01 [2]; [7]): 179 nM

Sequence: DMIVDAIPY
- Kd (HLA-A*01:01 [1]; [7]): ≥ 50000 nM

Sequence: FDEKNQDKY
- Kd (HLA-A*01:01 [1]; [3]): ≥ 50000 nM

Sequence: CSNDKSLVY
- IC50 (HLA-A*01:01 [2]; [7]): 115 nM

Sequence: VQDCNCSIY
- IC50 (HLA-A*01:01 [2]; [9]): 78 nM

Sequence: DPEMADVTY
- Kd (HLA-A*01:01 [1]; [3]): ≥ 50000 nM

Sequence: GMQNIYIKY
- Kd (HLA-A*01:01 [1]; [7]): 2470 nM

Sequence: ETPGIRYQY
- Kd (HLA-A*01:01 [1]; [4]): 2150 nM

Sequence: FLDQWWTEY
- IC50 (HLA-A*01:01 [2]; [7]): 1.1 nM

Sequence: KAEVHTFYY
- IC50 (HLA-A*01:01 [2]; [3]): 233 nM

Sequence: HTEFEGQVY
- IC50 (HLA-A*01:01 [2]; [5]): 6.8 nM

Sequence: LTAGLDFAY
- IC50 (HLA-A*01:01 [2]; [3]): 26 nM

Sequence: RSYNLKLSY
- Kd (HLA-A*01:01 [1]; [3]): 6220 nM

Sequence: KSWQEWNIY
- Kd (HLA-A*01:01 [1]; [3]): 17900 nM

Sequence: LTYKYNQFY
- IC50 (HLA-A*01:01 [2]; [7]): 12 nM

Sequence: YDEDDYSYY
- Kd (HLA-A*01:01 [1]; [3]): ≥ 50000 nM

Sequence: KSKSIFFEY
- Kd (HLA-A*01:01 [1]; [7]): 7060 nM

Sequence: ITYFKKIYY
- Kd (HLA-A*01:01 [1]; [7]): 2330 nM

Sequence: GTQLFEDNY
- IC50 (HLA-A*01:01 [2]; source organism: Homo sapiens): 237 nM

Sequence: FTIFKIRMY
- Kd (HLA-A*01:01 [1]; [9]): 3500 nM

Sequence: YTAVVPLVY
- IC50 (HLA-A*01:01 [2]; source organism: Homo sapiens): 1.5 nM

Sequence: LTPRCMVDY
- IC50 (HLA-A*01:01 [2]; [9]): 538 nM

Sequence: HSAEALQKY
- IC50 (HLA-A*01:01 [2]; [3]): 398 nM

Sequence: LSGNGHFHY
- IC50 (HLA-A*01:01 [2]; [3]): 125 nM

Sequence: STTAGPNEY
- IC50 (HLA-A*01:01 [2]; [8]): 785 nM

Sequence: FEDPTRRPY
- Kd (HLA-A*01:01 [1]; [10]): ≥ 50000 nM

Sequence: VCDKCLKFY
- Kd (HLA-A*01:01 [1]; [10]): ≥ 50000 nM

Sequence: TSPYELSLY
- IC50 (HLA-A*01:01 [2]; [7]): 255 nM

Sequence: GKDLYYKNY
- Kd (HLA-A*01:01 [1]; [3]): ≥ 50000 nM

Sequence: RSARASSRY
- IC50 (HLA-A*01:01 [2]; [5]): 622 nM

Sequence: LSQDALTNY
- Kd (HLA-A*01:01 [1]; [3]): 2060 nM

Sequence: EKEVVPDFY
- Kd (HLA-A*01:01 [1]; [3]): ≥ 50000 nM

Sequence: IRDMTEKQY
- Kd (HLA-A*01:01 [1]; [3]): ≥ 50000 nM

Sequence: GTATYLPPY
- IC50 (HLA-A*01:01 [2]; [3]): 120 nM

Sequence: VAEGDTVIY
- IC50 (HLA-A*01:01 [2]; [5]): 840 nM

Sequence: TSIPFLHEY
- IC50 (HLA-A*01:01 [2]; [7]): 618 nM

Sequence: ETLEEITGY
- IC50 (HLA-A*01:01 [2]; source organism: Homo sapiens): 984 nM

Sequence: TQDLVQEKY
- IC50 (HLA-A*01:01 [2]; source organism: Homo sapiens): 20 nM

Sequence: RPDLSLRSY
- Kd (HLA-A*01:01 [1]; [3]): ≥ 50000 nM

Sequence: RNEFSNVEY
- Kd (HLA-A*01:01 [1]; [7]): ≥ 50000 nM

Sequence: AFDERRNKY
- Kd (HLA-A*01:01 [1]; source organism: Influenza A virus (A/Texas/1/1977(H3N2))): ≥ 50000 nM

Sequence: LTEIDIRDY
- IC50 (HLA-A*01:01 [2]; [3]): 65 nM
